From patent US20220135682A1

Assays:
Human ICOS (human) [1] = target: Human ICOS (human) (UniProt Q9Y6W8); assay: in vivo target engagement, flow cytometry on human peripheral blood CD4+ T cells, 0.1 mg/kg, Day 42
Human ICOS (human) [2] = target: Human ICOS (human) (UniProt Q9Y6W8); assay: in vivo target engagement, flow cytometry on human peripheral blood CD4+ T cells, 0.1 mg/kg, Day 42, average of three subjects
Human ICOS (human) [3] = target: Human ICOS (human) (UniProt Q9Y6W8); assay: in vivo target engagement, flow cytometry on human peripheral blood CD4+ T cells, average of three subjects after first i.v. dose of 0.1 mg/kg

Sequence of Human ICOS (human) (Q9Y6W8 21-199): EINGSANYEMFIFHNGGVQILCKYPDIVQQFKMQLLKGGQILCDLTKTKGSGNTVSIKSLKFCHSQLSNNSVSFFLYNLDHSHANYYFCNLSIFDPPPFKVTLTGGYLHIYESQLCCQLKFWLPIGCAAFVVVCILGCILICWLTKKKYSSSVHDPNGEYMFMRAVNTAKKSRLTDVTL

target engagement (Human ICOS (human) [1]): < 40% | target engagement (Human ICOS (human) [2]): 10% | target engagement (Human ICOS (human) [3]): 100%
Substance: JTX-2011 (antibody)
